Test results taken from patent US20220340687A1.

Biological target: high affinity IgE receptor (FcεR1) (human) (UniProt P12319)
Experiment: flow cytometry of purified human pDCs, mean over all assayed donors

Sequence of high affinity IgE receptor (FcεR1) (human) (P12319 26-257): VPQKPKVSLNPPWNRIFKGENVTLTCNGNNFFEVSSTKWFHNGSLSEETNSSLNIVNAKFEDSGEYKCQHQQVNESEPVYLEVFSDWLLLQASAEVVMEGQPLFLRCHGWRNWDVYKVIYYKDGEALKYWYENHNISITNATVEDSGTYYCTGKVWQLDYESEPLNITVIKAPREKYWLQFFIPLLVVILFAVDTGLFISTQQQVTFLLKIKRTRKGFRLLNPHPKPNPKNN
Sequence of human immunoglobulin E (IgE) (P01854 other isoform, or with tags, fused parts or gaps): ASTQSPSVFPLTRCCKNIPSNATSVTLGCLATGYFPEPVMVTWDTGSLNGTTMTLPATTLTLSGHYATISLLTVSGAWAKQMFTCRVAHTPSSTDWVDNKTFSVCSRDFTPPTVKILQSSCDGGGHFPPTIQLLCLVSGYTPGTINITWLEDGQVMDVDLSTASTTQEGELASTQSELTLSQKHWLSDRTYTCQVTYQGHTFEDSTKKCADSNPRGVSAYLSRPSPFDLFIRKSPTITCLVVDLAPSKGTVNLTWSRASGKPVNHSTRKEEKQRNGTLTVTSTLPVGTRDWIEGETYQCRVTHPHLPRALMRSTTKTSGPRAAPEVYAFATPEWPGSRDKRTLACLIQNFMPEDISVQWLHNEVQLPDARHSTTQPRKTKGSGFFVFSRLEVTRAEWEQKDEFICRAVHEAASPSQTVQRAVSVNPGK

percentage of pDCs displaying IgE bound to FcεR1: 45.7%
Substance: human immunoglobulin E (IgE) (from UniProt P01854 1-428) (antibody)
